Test results taken from patent WO2021218879A1 (dated 2021).
Read-outs that look alike come from different tables or passages of the source.

How the values were obtained:
[1] = biological target: CD16a-AVI-His(V158)+BirA protein (UniProt P08637 17-208); assay: ELISA, biotinylated CD16a captured on avidin, titrated antibody
[2] = biological target: T1, CD32a-AVI-His(R131)+BirA protein (UniProt P12318 36-218); assay: ELISA, biotinylated CD32a captured on avidin, titrated antibody
T1 sequence: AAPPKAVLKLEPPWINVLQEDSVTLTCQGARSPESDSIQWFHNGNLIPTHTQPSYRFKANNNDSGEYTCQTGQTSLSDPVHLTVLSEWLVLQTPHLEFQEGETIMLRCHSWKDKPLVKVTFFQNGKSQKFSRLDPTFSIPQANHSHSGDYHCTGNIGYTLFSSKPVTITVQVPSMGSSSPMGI

[3] = biological target: T2, SARS-CoV-2 S full-length protein on pseudovirus (SARS-CoV-2, UniProt P0DTC2 14-1273); assay: cell-based or functional assay
SARS-CoV-2 RBD protein [4] = biological target: T3, SARS-CoV-2 RBD protein (SARS-CoV-2, UniProt P0DTC2 319-541); assay: BLI (OctetRED96e), biotinylated RBD on SA sensor, antibody in solution
T3 construct: domain: RBD

[5] = biological target: T4, CD32b-AVI-HIS+BirA protein (UniProt P31994 43-217); assay: ELISA, biotinylated CD32b captured on avidin, titrated antibody
T4 sequence: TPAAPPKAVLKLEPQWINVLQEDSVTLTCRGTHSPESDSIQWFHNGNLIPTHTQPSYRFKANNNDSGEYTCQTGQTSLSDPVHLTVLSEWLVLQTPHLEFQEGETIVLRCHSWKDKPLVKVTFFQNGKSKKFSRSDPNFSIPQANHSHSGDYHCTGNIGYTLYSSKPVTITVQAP

SARS-CoV-2 RBD protein [6] = biological target: T3, SARS-CoV-2 RBD protein; assay: ELISA, RBD protein coated at varied concentration, antibody at 1 ug/mL
SARS-CoV-2 ECD protein [7] = biological target: T5, SARS-CoV-2 ECD protein (SARS-CoV-2, UniProt P0DTC2 14-1213); assay: ELISA, ECD protein coated at varied concentration, antibody at 1 ug/mL
T5 construct: extracellular domain

[8] = biological target: T6, SARS-CoV-2-S1-his protein (SARS-CoV-2, UniProt P0DTC2 16-685); assay: ELISA, S1 protein coated at varied concentration, antibody at 1 ug/mL
T6 construct: domain: S1

[9] = biological target: T6, SARS-CoV-2-S1-his protein; assay: BLI (OctetRED96e), biotinylated S1 on SA sensor, antibody in solution
[10] = biological target: T6, SARS-CoV-2-S1-his protein
[11] = biological target: CD64-AVI-His+BirA protein (UniProt P12314 16-288); assay: ELISA, biotinylated CD64 captured on avidin, titrated antibody
CD64-AVI-His+BirA protein, sequence (P12314 16-288 limits assumed): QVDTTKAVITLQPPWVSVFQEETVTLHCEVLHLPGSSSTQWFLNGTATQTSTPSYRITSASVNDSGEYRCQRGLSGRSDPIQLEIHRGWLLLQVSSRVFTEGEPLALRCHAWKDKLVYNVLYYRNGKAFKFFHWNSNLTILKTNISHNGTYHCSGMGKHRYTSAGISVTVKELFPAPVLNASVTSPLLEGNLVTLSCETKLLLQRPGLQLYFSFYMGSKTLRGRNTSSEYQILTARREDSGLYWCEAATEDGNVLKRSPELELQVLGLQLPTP

[12] = biological target: T6, SARS-CoV-2-S1-his protein; assay: ELISA, S1 protein coated at varied concentration, antibody at 1 ug/mL; remark: listed apart in the source
[13] = biological target: T2, SARS-CoV-2 S full-length protein on …; assay: cell-based or functional assay; remark: listed apart in the source
SARS-CoV-2 RBD protein [14] = biological target: T3, SARS-CoV-2 RBD protein
[15] = biological target: T6, SARS-CoV-2-S1-his protein; remark: listed apart in the source
[16] = biological target: T7, SARS-CoV-2 S1 protein on HF-nCoV-SPIKE-8D3 cells (SARS-CoV-2, UniProt P0DTC2 14-1273); assay: flow cytometry on HF-nCoV-SPIKE-8D3 cells, titrated antibody
T7 construct: whole, on cells

SARS-CoV-2 ECD protein [17] = biological target: T5, SARS-CoV-2 ECD protein; assay: ELISA, ECD protein coated at varied concentration, antibody at 1 ug/mL; remark: listed apart in the source

CD16a-AVI-His(V158)+BirA protein, sequence (P08637 17-208 F176V limits assumed): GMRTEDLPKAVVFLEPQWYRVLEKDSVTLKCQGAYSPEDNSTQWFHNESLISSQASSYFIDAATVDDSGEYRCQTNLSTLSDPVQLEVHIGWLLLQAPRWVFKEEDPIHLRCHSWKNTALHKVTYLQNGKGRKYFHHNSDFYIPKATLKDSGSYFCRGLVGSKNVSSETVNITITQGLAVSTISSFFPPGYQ

B1: humanized antibody CoV2-HB27 (antibody)
heavy: not shown
light: EIVLTQSPATLSLSPGERATLSCRASESVDNYGISFMNWFQQKPGQAPRLLIYAASNQGSGVPARFSGSGSGTDFSLTISSLEPEDFAVYFCQQSKEVPRTFGQGTKVEIKRTVAAPSVFIFPPSDEQLKSGTASVVCLLNNFYPREAKVQWKVDNALQSGNSQESVTEQDSKDSTYSLSSTLTLSKADYEKHKVYACEVTHQGLSSPVTKSFNRGEC
notes: also called IgG1 subtype CoV2-HB27 antibody; CoV2-HB27-IgG1
- binding result [1]: binds
- binding result [2]: binds
- neutralization IC50, SARS-CoV-2 pseudovirus on 293FT-ACE2 cells (luciferase) [3]: 0.0059 µg/mL
- Kd (SARS-CoV-2 RBD protein [4]): 39 pM
- koff (SARS-CoV-2 RBD protein [4]): 1.4e-05 s⁻¹
- kon (SARS-CoV-2 RBD protein [4]): 370000 M⁻¹ s⁻¹
- binding result [5]: binds
- EC50 (SARS-CoV-2 RBD protein [6]): 0.0222 µg/mL
- EC50 (SARS-CoV-2 ECD protein [7]): 0.972 µg/mL
- EC50 [8]: 0.183 µg/mL
- Kd [9]: 370 pM
- koff [9]: 0.00039 s⁻¹
- kon [9]: 1.1e+06 M⁻¹ s⁻¹
- EC50 [10]: 0.179 µg/mL

B2: CoV2-HB27-Ae0-IgG1 (antibody)
heavy: not shown
light: B1 light
notes: also called Ae0-IgG1 form antibody; defucosylated IgG1 subtype CoV2-HB27
- binding result [1]: binds
- binding result [2]: binds
- binding result [5]: binds

B3: CoV2-HB27-Fd6-IgG1 (antibody)
heavy: not shown
light: B1 light
notes: also called Fd6-IgG1 form antibody; reduced Fc function IgG1 subtype humanized antibody
- binding result [2]: no binding
- binding result [11]: binds
- binding result [5]: no binding

B4: human-mouse chimeric antibody CoV2-mhB27 (antibody, V domains shown)
VH: EVKLVESGGGLVKPGGSLKLSCAASGFTFSNYGMSWVRQSPEKRLEWVAEISSGGSYTYYPDTVTGRFTISRDNAKNTLYLEMSSLRSEDTAMYYCARFRYDGGGGTVDYWGQGTSVTVSS
VL: not shown
notes: also called murine antibody CoV2-mhB27
- EC50 [12]: 0.116 µg/mL
- neutralization IC50, SARS-CoV-2 pseudovirus on 293FT-ACE2 cells (luciferase) [13]: 0.0087 µg/mL
- EC50 (SARS-CoV-2 RBD protein [14]): 0.044 µg/mL
- EC50 [15]: 0.024 µg/mL
- EC50 [16]: 2.77 µg/mL
- EC50 (SARS-CoV-2 ECD protein [17]): 0.307 µg/mL
